Measured values from article PMC3985653, “A bacteriophage transcription regulator inhibits bacterial transcription initiation by σ-factor displacement”.

B1: T5 N25 promoter [-65 to +35] (dsDNA)
DNA 1: TCTTTGCTCAAAGAATCATAAAAAATTTATTTGCTTTCAGGAAAATTTTTCTGTATAATAGATTCATAAATTTGAGAGAGGAGTTTAAATATGGCTGGTTC
DNA 2: GAACCAGCCATATTTAAACTCCTCTCTCAAATTTATGAATCTATTATACAGAAAAATTTTCCTGAAAGCAAATAAATTTTTTATGATTCTTTGAGCAAAGA
B2: lacUV5 promoter [-64 to +36] (dsDNA)
DNA 1: GTTAGCTCACTCATTAGGCACCCCAGGCTTTACACTTTATGCTTCCGGCTCGTATAATGTGTGGAATTGTGAGCGGATAACAATTTCACACAGGAAACAG
DNA 2: CTGTTTCCTGTGTGAAATTGTTATCCGCTCACAATTCCACACATTATACGAGCCGGAAGCATAAAGTGTAAAGCCTGGGGTGCCTAATGAGTGAGCTAAC

Assays:
[1] = target: T1, P7-sensitive core RNA polymerase (P7SE; hybrid E. coli core with Xo beta' N-terminus NLFN);sigma70 (Escherichia coli (397c cells, …, UniProt P0A7Z4;P0A8V2;Q2NZX9;P0A800;P00579 1-329;1-1342;1-10+P0A8T7:11-1407;2-91;1-613, internal_change|); assay: KMnO4 footprinting; conditions: protein: recombinant;recombinant; tags: C-6His on beta';N-6His-HMK in 32P-labelled experiments; unlabelled form purified separately; chain copies: 2;1;1;1;1; label: 5'-32P on one strand; blunt
[2] = target: T1, P7-sensitive core RNA polymerase (P7SE; …); assay: EMSA; no P7; heparin-resistant open complex; conditions: protein: recombinant;recombinant; tags: C-6His on beta';N-6His-HMK in 32P-labelled experiments; unlabelled form purified separately; chain copies: 2;1;1;1;1; blunt

Binder	binding result [1]	binding result [2]
B1	binds	–
B2	–	binds
